Source: patent US20190177417A1 (BIOATLA, published 2019)

T1: Axl protein (human, UniProt P30530 26-451)
T1 construct: extracellular domain; also called human Axl; hAxl
T1 sequence (looked up): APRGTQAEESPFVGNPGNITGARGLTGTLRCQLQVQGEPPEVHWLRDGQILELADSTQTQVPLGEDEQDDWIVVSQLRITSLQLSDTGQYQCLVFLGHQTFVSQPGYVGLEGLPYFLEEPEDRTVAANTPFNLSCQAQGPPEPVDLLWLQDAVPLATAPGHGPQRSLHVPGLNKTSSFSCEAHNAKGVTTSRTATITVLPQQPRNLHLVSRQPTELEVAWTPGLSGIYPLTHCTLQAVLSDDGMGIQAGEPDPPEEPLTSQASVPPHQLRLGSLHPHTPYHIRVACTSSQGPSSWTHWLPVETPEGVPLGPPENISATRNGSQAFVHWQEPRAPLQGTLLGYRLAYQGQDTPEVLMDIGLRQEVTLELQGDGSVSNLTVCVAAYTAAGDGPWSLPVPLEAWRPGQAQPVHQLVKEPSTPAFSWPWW


Experiments:
[1] = molecular target: T1, Axl protein; assay: ELISA, 1:9 dilution, pH 6.0 over pH 7.4
[2] = molecular target: T1, Axl protein; assay: ELISA, 1:3 dilution, pH 6.0 over pH 7.4

Affinity ELISA CPE mutant ratio (1:9, pH 6.0/7.4) [1] [ratio]	Affinity ELISA CPE mutant ratio (1:3, pH 6.0/7.4) [2] [ratio]	Binder
2.68	1.8	HC-E102G (antibody, V domains shown) VH: EVQLVQSGAEVKKPGATVKISCKVSGYSFTGHTMNWIRQPPGKGLEWIGLIKPSNGGTSYNQKFKGRVTISADKSISTAYLQWSSLKASDTAMYYCAHGHYGSYFAMDYWGQGTLVTVSS VL: DIQMTQSPSSLSASVGDRVTITCKASQDVSSAVAWYQQKPGQAPRLLIYWASTRHTGVPSRFSGSGSGTEFTLTISSLQPDDFATYYCQEHFSTPLTFGQGTKVEIK
1.37	7.47	HC-W110T (antibody, V domains shown) VH: EVQLVQSGAEVKKPGATVKISCKVSGYSFTGHTMNWIRQPPGKGLEWIGLIKPSNGGTSYNQKFKGRVTISADKSISTAYLQWSSLKASDTAMYYCAHGHYESYFAMDYTGQGTLVTVSS VL: DIQMTQSPSSLSASVGDRVTITCKASQDVSSAVAWYQQKPGQAPRLLIYWASTRHTGVPSRFSGSGSGTEFTLTISSLQPDDFATYYCQEHFSTPLTFGQGTKVEIK
0.8	4.3	HC-W110N (antibody, V domains shown) VH: EVQLVQSGAEVKKPGATVKISCKVSGYSFTGHTMNWIRQPPGKGLEWIGLIKPSNGGTSYNQKFKGRVTISADKSISTAYLQWSSLKASDTAMYYCAHGHYESYFAMDYNGQGTLVTVSS VL: DIQMTQSPSSLSASVGDRVTITCKASQDVSSAVAWYQQKPGQAPRLLIYWASTRHTGVPSRFSGSGSGTEFTLTISSLQPDDFATYYCQEHFSTPLTFGQGTKVEIK
2.31	2.08	HC-E102H (antibody, V domains shown) VH: EVQLVQSGAEVKKPGATVKISCKVSGYSFTGHTMNWIRQPPGKGLEWIGLIKPSNGGTSYNQKFKGRVTISADKSISTAYLQWSSLKASDTAMYYCAHGHYHSYFAMDYWGQGTLVTVSS VL: DIQMTQSPSSLSASVGDRVTITCKASQDVSSAVAWYQQKPGQAPRLLIYWASTRHTGVPSRFSGSGSGTEFTLTISSLQPDDFATYYCQEHFSTPLTFGQGTKVEIK
1.2	7.91	HC-W110A (antibody, V domains shown) VH: EVQLVQSGAEVKKPGATVKISCKVSGYSFTGHTMNWIRQPPGKGLEWIGLIKPSNGGTSYNQKFKGRVTISADKSISTAYLQWSSLKASDTAMYYCAHGHYESYFAMDYAGQGTLVTVSS VL: DIQMTQSPSSLSASVGDRVTITCKASQDVSSAVAWYQQKPGQAPRLLIYWASTRHTGVPSRFSGSGSGTEFTLTISSLQPDDFATYYCQEHFSTPLTFGQGTKVEIK
3.06	3.29	HC-A106Y (antibody, V domains shown) VH: EVQLVQSGAEVKKPGATVKISCKVSGYSFTGHTMNWIRQPPGKGLEWIGLIKPSNGGTSYNQKFKGRVTISADKSISTAYLQWSSLKASDTAMYYCAHGHYESYFYMDYWGQGTLVTVSS VL: DIQMTQSPSSLSASVGDRVTITCKASQDVSSAVAWYQQKPGQAPRLLIYWASTRHTGVPSRFSGSGSGTEFTLTISSLQPDDFATYYCQEHFSTPLTFGQGTKVEIK
2.51	3.39	HC-A106D (antibody, V domains shown) VH: EVQLVQSGAEVKKPGATVKISCKVSGYSFTGHTMNWIRQPPGKGLEWIGLIKPSNGGTSYNQKFKGRVTISADKSISTAYLQWSSLKASDTAMYYCAHGHYESYFDMDYWGQGTLVTVSS VL: DIQMTQSPSSLSASVGDRVTITCKASQDVSSAVAWYQQKPGQAPRLLIYWASTRHTGVPSRFSGSGSGTEFTLTISSLQPDDFATYYCQEHFSTPLTFGQGTKVEIK
1.79	1.06	HC-G111H (antibody, V domains shown) VH: EVQLVQSGAEVKKPGATVKISCKVSGYSFTGHTMNWIRQPPGKGLEWIGLIKPSNGGTSYNQKFKGRVTISADKSISTAYLQWSSLKASDTAMYYCAHGHYESYFAMDYWHQGTLVTVSS VL: DIQMTQSPSSLSASVGDRVTITCKASQDVSSAVAWYQQKPGQAPRLLIYWASTRHTGVPSRFSGSGSGTEFTLTISSLQPDDFATYYCQEHFSTPLTFGQGTKVEIK
2.36	2.08	HC-E102M (antibody, V domains shown) VH: EVQLVQSGAEVKKPGATVKISCKVSGYSFTGHTMNWIRQPPGKGLEWIGLIKPSNGGTSYNQKFKGRVTISADKSISTAYLQWSSLKASDTAMYYCAHGHYMSYFAMDYWGQGTLVTVSS VL: DIQMTQSPSSLSASVGDRVTITCKASQDVSSAVAWYQQKPGQAPRLLIYWASTRHTGVPSRFSGSGSGTEFTLTISSLQPDDFATYYCQEHFSTPLTFGQGTKVEIK
2.8	2.43	HC-F105V (antibody, V domains shown) VH: EVQLVQSGAEVKKPGATVKISCKVSGYSFTGHTMNWIRQPPGKGLEWIGLIKPSNGGTSYNQKFKGRVTISADKSISTAYLQWSSLKASDTAMYYCAHGHYESYVAMDYWGQGTLVTVSS VL: DIQMTQSPSSLSASVGDRVTITCKASQDVSSAVAWYQQKPGQAPRLLIYWASTRHTGVPSRFSGSGSGTEFTLTISSLQPDDFATYYCQEHFSTPLTFGQGTKVEIK
1.61	21.5	HC-A106L (antibody, V domains shown) VH: EVQLVQSGAEVKKPGATVKISCKVSGYSFTGHTMNWIRQPPGKGLEWIGLIKPSNGGTSYNQKFKGRVTISADKSISTAYLQWSSLKASDTAMYYCAHGHYESYFLMDYWGQGTLVTVSS VL: DIQMTQSPSSLSASVGDRVTITCKASQDVSSAVAWYQQKPGQAPRLLIYWASTRHTGVPSRFSGSGSGTEFTLTISSLQPDDFATYYCQEHFSTPLTFGQGTKVEIK
1.09	20.6	HC-M107F (antibody, V domains shown) VH: EVQLVQSGAEVKKPGATVKISCKVSGYSFTGHTMNWIRQPPGKGLEWIGLIKPSNGGTSYNQKFKGRVTISADKSISTAYLQWSSLKASDTAMYYCAHGHYESYFAFDYWGQGTLVTVSS VL: DIQMTQSPSSLSASVGDRVTITCKASQDVSSAVAWYQQKPGQAPRLLIYWASTRHTGVPSRFSGSGSGTEFTLTISSLQPDDFATYYCQEHFSTPLTFGQGTKVEIK
0.924	8.22	HC-W110L (antibody, V domains shown) VH: EVQLVQSGAEVKKPGATVKISCKVSGYSFTGHTMNWIRQPPGKGLEWIGLIKPSNGGTSYNQKFKGRVTISADKSISTAYLQWSSLKASDTAMYYCAHGHYESYFAMDYLGQGTLVTVSS VL: DIQMTQSPSSLSASVGDRVTITCKASQDVSSAVAWYQQKPGQAPRLLIYWASTRHTGVPSRFSGSGSGTEFTLTISSLQPDDFATYYCQEHFSTPLTFGQGTKVEIK
2.15	6.49	HC-W110P (antibody, V domains shown) VH: EVQLVQSGAEVKKPGATVKISCKVSGYSFTGHTMNWIRQPPGKGLEWIGLIKPSNGGTSYNQKFKGRVTISADKSISTAYLQWSSLKASDTAMYYCAHGHYESYFAMDYPGQGTLVTVSS VL: DIQMTQSPSSLSASVGDRVTITCKASQDVSSAVAWYQQKPGQAPRLLIYWASTRHTGVPSRFSGSGSGTEFTLTISSLQPDDFATYYCQEHFSTPLTFGQGTKVEIK
1.11	3.72	HC-W110D (antibody, V domains shown) VH: EVQLVQSGAEVKKPGATVKISCKVSGYSFTGHTMNWIRQPPGKGLEWIGLIKPSNGGTSYNQKFKGRVTISADKSISTAYLQWSSLKASDTAMYYCAHGHYESYFAMDYDGQGTLVTVSS VL: DIQMTQSPSSLSASVGDRVTITCKASQDVSSAVAWYQQKPGQAPRLLIYWASTRHTGVPSRFSGSGSGTEFTLTISSLQPDDFATYYCQEHFSTPLTFGQGTKVEIK
1.06	5.99	HC-W110R (antibody, V domains shown) VH: EVQLVQSGAEVKKPGATVKISCKVSGYSFTGHTMNWIRQPPGKGLEWIGLIKPSNGGTSYNQKFKGRVTISADKSISTAYLQWSSLKASDTAMYYCAHGHYESYFAMDYRGQGTLVTVSS VL: DIQMTQSPSSLSASVGDRVTITCKASQDVSSAVAWYQQKPGQAPRLLIYWASTRHTGVPSRFSGSGSGTEFTLTISSLQPDDFATYYCQEHFSTPLTFGQGTKVEIK
1.36	2.16	HC-M107E (antibody, V domains shown) VH: EVQLVQSGAEVKKPGATVKISCKVSGYSFTGHTMNWIRQPPGKGLEWIGLIKPSNGGTSYNQKFKGRVTISADKSISTAYLQWSSLKASDTAMYYCAHGHYESYFAEDYWGQGTLVTVSS VL: DIQMTQSPSSLSASVGDRVTITCKASQDVSSAVAWYQQKPGQAPRLLIYWASTRHTGVPSRFSGSGSGTEFTLTISSLQPDDFATYYCQEHFSTPLTFGQGTKVEIK
2.2	1.52	HC-A106G (antibody, V domains shown) VH: EVQLVQSGAEVKKPGATVKISCKVSGYSFTGHTMNWIRQPPGKGLEWIGLIKPSNGGTSYNQKFKGRVTISADKSISTAYLQWSSLKASDTAMYYCAHGHYESYFGMDYWGQGTLVTVSS VL: DIQMTQSPSSLSASVGDRVTITCKASQDVSSAVAWYQQKPGQAPRLLIYWASTRHTGVPSRFSGSGSGTEFTLTISSLQPDDFATYYCQEHFSTPLTFGQGTKVEIK
